Experimental data published in paper PMC12839305.

Target: RVFV glycoprotein Gn head domain (154–469 aa) (Rift Valley fever virus) (UniProt P21401)
Assay: BLI; […]; 300 s association, 300 s dissociation; […], global 1:1 model; Octet RED96

With “full-length LRP1 (low-density lipoprotein receptor-related protein 1), native, from porcine lung” the Kd was 9.2 nM.
